Source: article doi:10.1101/2020.06.22.20137695

Columns and labels:
[1] = target: SARS-CoV spike protein, recombinant soluble ectodomain trimer (SARS-CoV) (UniProt P59594); test: SEC
[2] = target: MERS-CoV spike protein, recombinant soluble ectodomain trimer (MERS-CoV) (UniProt K9N5Q8); test: SEC

| Substance | stoichiometry N [1] | stoichiometry N [2] |
| --- | --- | --- |
| SARS-CoV spike protein, recombinant soluble ectodomain trimer (from UniProt P59594 14-1195) (domain or fragment) | 3 |  |
| MERS-CoV spike protein, recombinant soluble ectodomain trimer (from UniProt K9N5Q8 18-1296) (domain or fragment) |  | 3 |
